From the supplement of paper PMC7877785
± gives the uncertainty stated by the source.

Assay: self-splicing fitness, log relative to wild type (ln ratio); higher = more splicing; Tetrahymena group I intron in knt gene, E. coli kanamycin selection, DiMSum; sequences stand for … in CUCUCU…GGAGGGAAAAGUUAUCAGGCAUGCACCUGGUAGCUAGUCUUUAAACCAAUAGAUUGCAUCGGUUUAAAAGGCAAGACCGUCAAAUUGCGGGAAAGGGGUCAACAGCCGUUCAGUACCAAGUCUCAGGGGAAACUUUGAGAUGGCCUUGCAAAGGGUAUGGUAAUAAGCUGACGGACAUGGUCCUAACCACGCAGCCAAGUCCUAAGUCAACAGAUCUUCUGUUGAUAUGGAUGCAGUUCACAGACUAAAUGUCGGUCGGGGAAGAUGUAUUCUUCUCAUAAGAUAUAGUCGGACCUCUCCUUAAUGGGAGCUAGCGGAUGAAGUGAUGCAACACUGGAGCCGCUGGGAACUAAUUUGUAUGCGAAAGUAUAUUGAUUAGUUUUGGAGUACUCGUGGUCG
How it was run: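 A randomised library covering all eight P1ex-region intron nucleotides was built with the intron in the knt kanamycin-resistance gene on pET-22b(+) and held in E. coli BL21(DE3). Cells were grown overnight at 37°C or 30°C on LB agar, with or without 25 μg/mL kanamycin, plus 100 μg/mL carbenicillin, 50 μM IPTG and 0.2% rhamnose, and pooled colonies were amplicon-sequenced on an Illumina HiSeq 2500. DiMSum fitness is the error-weighted combination of wild-type-normalised replicate fold changes, kanamycin versus none.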

| Sequence | self-splicing fitness (ln) (30 °C) | self-splicing fitness (ln) (37 °C) |
| --- | --- | --- |
| GGAGAGCAAUAUUACGGGCA | -2.49 ± 0.24 | -1.22 ± 0.21 |
| GGAGAGCAAUAUUACGGUGA | -2.27 ± 0.2 | -1.46 ± 0.21 |
| GGAGAGCAAUAUUACGUACU | -1.1 ± 0.12 | -1.16 ± 0.14 |
| GGAGAGCAAUAUUACGUCAA | -2.93 ± 0.31 | -3.54 ± 0.46 |
| GGAGAGCAAUAUUACGUCCA | -2.78 ± 0.2 | -0.872 ± 0.18 |
| GGAGAGCAAUAUUACGUGAA | -0.689 ± 0.2 | -2.2 ± 0.4 |
| GGAGAGCAAUAUUACGUUAU | -3.27 ± 0.23 | -2.98 ± 0.32 |
| GGAUAGCAAUAUUACGAAGU | -2.68 ± 0.29 | -2.02 ± 0.25 |
| GGAUAGCAAUAUUACGAAUG | -2.73 ± 0.18 | -1.87 ± 0.2 |
| GGAUAGCAAUAUUACGACCA | -0.97 ± 0.092 | -0.392 ± 0.13 |
| GGAUAGCAAUAUUACGACGC | -0.274 ± 0.11 | 0.262 ± 0.12 |
| GGAUAGCAAUAUUACGAGGU | -2.75 ± 0.29 | -2.7 ± 0.18 |
| GGAUAGCAAUAUUACGAGUA | -2.54 ± 0.48 | -1.14 ± 0.16 |
| GGAUAGCAAUAUUACGAUAA | -1.51 ± 0.19 | -1.46 ± 0.2 |
| GGAUAGCAAUAUUACGCACA | -0.523 ± 0.12 | 0.321 ± 0.14 |
| GGAUAGCAAUAUUACGCCGG |  | -1.28 ± 0.42 |
| GGAUAGCAAUAUUACGCGAG | -1.38 ± 0.15 | -1.16 ± 0.14 |
| GGAUAGCAAUAUUACGCGUU | -1.98 ± 0.42 | -2.06 ± 0.47 |
| GGAUAGCAAUAUUACGCUCA | 0.156 ± 0.15 | -0.278 ± 0.15 |
| GGAUAGCAAUAUUACGGAGA | -2.79 ± 0.26 | -2.33 ± 0.3 |
| GGAUAGCAAUAUUACGGCAA | -0.818 ± 0.19 | -0.178 ± 0.2 |
| GGAUAGCAAUAUUACGGCUG | -0.385 ± 0.14 | -0.733 ± 0.18 |
| GGAUAGCAAUAUUACGGGAC | -2.5 ± 0.24 | -2.15 ± 0.17 |
| GGAUAGCAAUAUUACGGGAU | -3.03 ± 0.27 | -2.39 ± 0.21 |
| GGAUAGCAAUAUUACGUAAC | -1.66 ± 0.15 | -0.538 ± 0.16 |

| Sequence | self-splicing fitness (ln) (30 °C) | self-splicing fitness (ln) (37 °C) |
| --- | --- | --- |
| GGAUAGCAAUAUUACGUAGA | -1.01 ± 0.17 | -1.4 ± 0.21 |
| GGAUAGCAAUAUUACGUAUU | -3.05 ± 0.2 | -2.21 ± 0.28 |
| GGAUAGCAAUAUUACGUCAU | -2.02 ± 0.11 | -0.395 ± 0.12 |
| GGCAAGCAAUAUUACGAAGA | -2.24 ± 0.18 | -0.478 ± 0.12 |
| GGCAAGCAAUAUUACGACCU | -0.895 ± 0.12 | -0.997 ± 0.12 |
| GGCAAGCAAUAUUACGCAAA | -0.878 ± 0.092 | -1.2 ± 0.097 |
| GGCAAGCAAUAUUACGCACC | -2.15 ± 0.32 | -2.31 ± 0.24 |
| GGCAAGCAAUAUUACGCAGC |  | -2.27 ± 0.28 |
| GGCAAGCAAUAUUACGCAGG | -2.1 ± 0.12 | -2.29 ± 0.2 |
| GGCAAGCAAUAUUACGCAUU | -0.374 ± 0.062 | 0.591 ± 0.081 |
| GGCAAGCAAUAUUACGCUGG | -3.31 ± 0.23 | -2.68 ± 0.28 |
| GGCAAGCAAUAUUACGGAAA | -1.55 ± 0.12 | -1.27 ± 0.13 |
| GGCAAGCAAUAUUACGGCGU | -0.154 ± 0.088 | 0.316 ± 0.12 |
| GGCAAGCAAUAUUACGGGCC | -2.85 ± 0.39 |  |
| GGCAAGCAAUAUUACGGUCG | -0.22 ± 0.072 | 0.553 ± 0.099 |
| GGCAAGCAAUAUUACGUAUC | -0.35 ± 0.063 | 0.0433 ± 0.083 |
| GGCAAGCAAUAUUACGUGGU | -2.43 ± 0.085 | -1.57 ± 0.075 |
| GGCAAGCAAUAUUACGUUGG | -2.5 ± 0.075 | -2.93 ± 0.12 |
| GGCCAGCAAUAUUACGAACG | -2.65 ± 0.41 | -0.764 ± 0.3 |
| GGCCAGCAAUAUUACGACAA | -2.78 ± 0.24 | -1.71 ± 0.19 |
| GGCCAGCAAUAUUACGACUC | -1.21 ± 0.11 | 0.0572 ± 0.13 |
| GGCCAGCAAUAUUACGACUU | -0.142 ± 0.084 | 0.435 ± 0.11 |
| GGCCAGCAAUAUUACGAGGC | -2.66 ± 0.23 | -2.94 ± 0.4 |
| GGCCAGCAAUAUUACGAUUA | -3.4 ± 0.21 | -2.05 ± 0.15 |
| GGCCAGCAAUAUUACGAUUU | -1.9 ± 0.12 | -0.659 ± 0.13 |

| Sequence | self-splicing fitness (ln) (30 °C) | self-splicing fitness (ln) (37 °C) |
| --- | --- | --- |
| GGCCAGCAAUAUUACGCCUA | -1.05 ± 0.15 | -1.05 ± 0.15 |
| GGCCAGCAAUAUUACGCUGC |  | -1.67 ± 0.22 |
| GGCCAGCAAUAUUACGCUGG | -3.98 ± 0.27 | -2.27 ± 0.24 |
| GGCCAGCAAUAUUACGGAAA | -1.27 ± 0.11 | -0.606 ± 0.13 |
| GGCCAGCAAUAUUACGGCCG | -3.47 ± 0.22 | -3 ± 0.23 |
| GGCCAGCAAUAUUACGGCUA | -0.439 ± 0.097 | -0.0906 ± 0.1 |
| GGCCAGCAAUAUUACGGCUU | -3.45 ± 0.21 | -2.68 ± 0.22 |
| GGCCAGCAAUAUUACGGGGC | -5.35 ± 0.32 | -4.33 ± 0.23 |
| GGCCAGCAAUAUUACGGGGU | -3.68 ± 0.24 | -3.21 ± 0.26 |
| GGCCAGCAAUAUUACGGGUC | -3.65 ± 0.26 | -2.41 ± 0.23 |
| GGCCAGCAAUAUUACGGUAC | -3.7 ± 0.19 | -2.3 ± 0.15 |
| GGCCAGCAAUAUUACGGUGG | -2.52 ± 0.14 | -1.85 ± 0.14 |
| GGCCAGCAAUAUUACGUCAA | -1.34 ± 0.31 | -2.61 ± 0.35 |
| GGCCAGCAAUAUUACGUCUC | -1.1 ± 0.089 | -0.447 ± 0.12 |
| GGCCAGCAAUAUUACGUCUG | -3.07 ± 0.24 | -2.93 ± 0.32 |
| GGCCAGCAAUAUUACGUUGU | -0.721 ± 0.072 | -0.537 ± 0.1 |
| GGCGAGCAAUAUUACGACGU | -1.36 ± 0.16 | -0.783 ± 0.21 |
| GGCGAGCAAUAUUACGAGAG | -3.79 ± 0.39 | -2.54 ± 0.33 |
| GGCGAGCAAUAUUACGAGAU | -3.61 ± 0.32 | -2.37 ± 0.49 |
| GGCGAGCAAUAUUACGAGGA | -3.43 ± 0.43 | -2.43 ± 0.25 |
| GGCGAGCAAUAUUACGAUAA | -1.64 ± 0.13 | -0.294 ± 0.15 |
| GGCGAGCAAUAUUACGAUAU | -2.12 ± 0.12 | -0.859 ± 0.12 |
| GGCGAGCAAUAUUACGAUGU | -3.69 ± 0.32 | -1.53 ± 0.2 |
| GGCGAGCAAUAUUACGAUUU | -1.09 ± 0.092 | -0.569 ± 0.12 |
| GGCGAGCAAUAUUACGCAAC | -0.841 ± 0.36 | -0.673 ± 0.27 |

| Sequence | self-splicing fitness (ln) (30 °C) | self-splicing fitness (ln) (37 °C) |
| --- | --- | --- |
| GGCGAGCAAUAUUACGCAUA | -1.15 ± 0.17 | -0.988 ± 0.16 |
| GGCGAGCAAUAUUACGCCAG | -1 ± 0.18 | -2.71 ± 0.44 |
| GGCGAGCAAUAUUACGCCGA | -2.65 ± 0.18 | -1.45 ± 0.091 |
| GGCGAGCAAUAUUACGCGAC | -2.61 ± 0.42 |  |
| GGCGAGCAAUAUUACGCGAU | -3.7 ± 0.26 | -1.62 ± 0.19 |
| GGCGAGCAAUAUUACGCGUU | -2.26 ± 0.24 | -1.94 ± 0.3 |
| GGCGAGCAAUAUUACGCUCU | -2.72 ± 0.23 | -2.06 ± 0.2 |
| GGCGAGCAAUAUUACGGAAU | -2.91 ± 0.19 | -1.87 ± 0.21 |
| GGCGAGCAAUAUUACGGCGA | -0.138 ± 0.078 | -0.0802 ± 0.092 |
| GGCGAGCAAUAUUACGGCUA | -0.343 ± 0.13 | 0.287 ± 0.14 |
| GGCGAGCAAUAUUACGGCUC | -1.83 ± 0.11 | -0.815 ± 0.21 |
| GGCGAGCAAUAUUACGGGUC | -1.2 ± 0.26 | -1.81 ± 0.35 |
| GGCGAGCAAUAUUACGGGUU | -2.52 ± 0.15 | -1.32 ± 0.13 |
| GGCGAGCAAUAUUACGUCAU | -2.45 ± 0.14 | -1.76 ± 0.11 |
| GGCGAGCAAUAUUACGUCCU | -2.41 ± 0.1 | -1.28 ± 0.09 |
| GGCGAGCAAUAUUACGUCGC | -2.72 ± 0.23 |  |
| GGCGAGCAAUAUUACGUGAC | -1.24 ± 0.18 | -1.65 ± 0.29 |
| GGCGAGCAAUAUUACGUGAG | -3.25 ± 0.18 | -2.57 ± 0.2 |
| GGCGAGCAAUAUUACGUGUG | -1.13 ± 0.1 | -0.745 ± 0.14 |
| GGCGAGCAAUAUUACGUUAG | -1.94 ± 0.15 | -2.49 ± 0.4 |
| GGCGAGCAAUAUUACGUUCA | -0.77 ± 0.1 | 0.0965 ± 0.13 |
| GGCUAGCAAUAUUACGAGAG | -2.09 ± 0.16 | -3.24 ± 0.32 |
